Bridge positions count the residues as written; N and C are the ends. Square brackets hold non-standard residues; d marks the D form. AEEA = NCCOCCOCC(=O)O
B1: Seq017-PL1 (peptide)
peptide: Ac-SGSG[AEEA]WQPCPWESWTFCWDPGGGK-NH2
modifications: disulfide 9-17; not fully specified (residue 24); printed as Ac-SGSGJWQPC*PWESWTFC*WDPGGGK(DSPE-PG4-Glut)-NH2
B2: Seq005-PL1 (peptide)
peptide: Ac-WQPCPAESWTFCWDPGGGK-NH2
modifications: disulfide 4-12; not fully specified (residue 19); printed as Ac-WQPC*PAESWTFC*WDPGGGK(DSPE-PG4-Glut)-NH2
B3: Seq000 (peptide)
peptide: WQPCPWESWTFCWDPGGGK
modifications: N-terminal acetyl (Ac-); C-terminal amide (-NH2); disulfide between the two C* cysteines
notes: also called comparative peptide
B4: Seq005-PL5 (peptide)
peptide: Ac-WQPCPAESWTFCWDPGAGSGK-NH2
modifications: disulfide 4-12; not fully specified (residue 21)
notes: Linker GAGSGK
B5: Seq005-PL4 (peptide)
peptide: Ac-WQPCPAESWTFCWDPGSAGSK-NH2
modifications: disulfide 4-12; not fully specified (residue 21)
notes: Linker GSAGSK
B6: Seq024-PL1 (peptide)
peptide: Ac-SGSGSGSGWQPCPWESWTFCWDPGGGK-NH2
modifications: disulfide 12-20; not fully specified (residue 27); printed as Ac-SGSGSGSGWQPC*PWESWTFC*WDPGGGK(DSPE-PG4-Glut)-NH2
B7: Seq023-PL1 (peptide)
peptide: H-RWQPCPWESWTFCWDPGGGK-NH2
modifications: disulfide 5-13; not fully specified (residue 20); printed as RWQPC*PWESWTFC*WDPGGGK(DSPE-PG4-Glut)-NH2
B8: Seq016-PL1 (peptide)
peptide: Ac-GWQPCPWESWTFCWDPGGGK-NH2
modifications: disulfide 5-13; not fully specified (residue 20); printed as Ac-GWQPC*PWESWTFC*WDPGGGK(DSPE-PG4-Glut)-NH2

Legend:
[1] = target: T1, fibrin (human fibrinogen clotted with human thrombin on glass coverslips) (human, UniProt P02671 36-629; P02675 45-491; P02679 27-437, limits assumed); assay: flow chamber test of targeted microvesicles on fibrin-coated coverslips
T1 construct: also called fibrin-coated coverslips
T1 sequence (looked up) 1: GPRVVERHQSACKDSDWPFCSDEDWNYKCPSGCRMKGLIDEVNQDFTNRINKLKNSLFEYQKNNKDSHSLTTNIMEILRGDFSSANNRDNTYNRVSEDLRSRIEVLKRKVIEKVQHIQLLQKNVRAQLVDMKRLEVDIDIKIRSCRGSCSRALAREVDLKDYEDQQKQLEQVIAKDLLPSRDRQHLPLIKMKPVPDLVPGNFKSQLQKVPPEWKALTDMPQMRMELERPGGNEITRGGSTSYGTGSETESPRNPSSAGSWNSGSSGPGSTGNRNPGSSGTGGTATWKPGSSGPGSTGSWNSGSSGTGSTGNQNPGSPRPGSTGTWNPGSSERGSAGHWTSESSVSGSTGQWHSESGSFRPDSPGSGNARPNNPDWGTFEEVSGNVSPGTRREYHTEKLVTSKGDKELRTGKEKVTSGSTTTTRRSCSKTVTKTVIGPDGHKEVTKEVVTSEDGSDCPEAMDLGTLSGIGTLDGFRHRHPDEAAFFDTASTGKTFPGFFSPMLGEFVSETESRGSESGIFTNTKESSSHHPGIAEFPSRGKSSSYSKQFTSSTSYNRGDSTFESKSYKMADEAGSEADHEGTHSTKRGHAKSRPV
T1 sequence (looked up) 2: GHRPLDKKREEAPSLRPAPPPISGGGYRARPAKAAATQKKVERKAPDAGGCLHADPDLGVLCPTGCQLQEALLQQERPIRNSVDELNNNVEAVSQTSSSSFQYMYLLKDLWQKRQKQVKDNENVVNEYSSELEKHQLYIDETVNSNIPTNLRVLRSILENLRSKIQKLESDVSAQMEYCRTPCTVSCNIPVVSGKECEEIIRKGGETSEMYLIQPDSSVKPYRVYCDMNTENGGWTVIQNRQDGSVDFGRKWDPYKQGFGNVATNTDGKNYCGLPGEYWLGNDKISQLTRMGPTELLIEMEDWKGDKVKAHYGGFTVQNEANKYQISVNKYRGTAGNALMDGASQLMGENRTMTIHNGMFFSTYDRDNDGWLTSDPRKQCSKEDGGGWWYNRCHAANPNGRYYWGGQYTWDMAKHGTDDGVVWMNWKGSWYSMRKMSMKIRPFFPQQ
T1 sequence (looked up) 3: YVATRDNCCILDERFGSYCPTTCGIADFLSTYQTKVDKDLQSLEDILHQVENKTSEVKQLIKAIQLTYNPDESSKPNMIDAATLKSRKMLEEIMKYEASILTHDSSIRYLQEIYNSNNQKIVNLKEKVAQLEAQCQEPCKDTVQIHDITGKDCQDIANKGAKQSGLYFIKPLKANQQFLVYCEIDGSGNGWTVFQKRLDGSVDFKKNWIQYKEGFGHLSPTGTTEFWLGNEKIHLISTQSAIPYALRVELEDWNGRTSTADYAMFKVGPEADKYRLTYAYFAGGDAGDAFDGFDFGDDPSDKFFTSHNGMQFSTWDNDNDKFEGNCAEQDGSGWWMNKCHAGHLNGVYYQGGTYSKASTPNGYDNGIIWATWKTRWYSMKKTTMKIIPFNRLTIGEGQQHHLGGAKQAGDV
Protocol: Five mL of a solution of BSA 1% w/v in PBS pH 7.4 were added into a 60 mm Petri Dish containing one coverslip, and incubated at 37° C. for 15 min. Then the coverslip was washed three times with 5 ml of Tween 80/PBS (0.1%, v:v). Twenty five μL of human thrombin solution at 5 U/mL were added per mL of human fibrinogen solution (0.5 mg/mL in 50 mM sodium phosphate, NaCl 280 mM, pH 7.4) and delicately mixed. Five mL of this solution were immediately distributed in each Petri dish. The coverslips were incubated for one hour at 37° C. and then dried overnight at 45° C.
Binding studies of targeted microvesicles were carried out using a parallel-plate flow chamber (FCS2, Bioptech Inc., Butler, Pa., USA) with a chamber gasket of 0.25 mm in thickness, with a customized adapter for upside-down chamber inversion. The coated coverslip was inserted as a plate of the flow chamber. Gas-filled Microvesicles (5×10⁶ bubbles/mL in 50% human plasma in PBS) were drawn through the flow chamber using an adjustable infusion pump (Auto Syringe® AS50 Infusion Pump, Baxter, Deerfield, Ill., USA) with a 60 mL syringe (Terumo). The pump flow rate was adjusted to 1 mL/min to obtain the desired shear rate of about 114 s⁻¹. After 10 minutes, the flow was stopped and pictures were taken randomly on different positions on the coverslip (on surfaces of about 0.025 mm²) using a 40× objective and a CCD monochrome camera (F-View II, Soft Imaging Systems, Germany) connected to an inverted Olympus IX 50 microscope. The number of microvesicles on each picture was determined, averaged with respect to the total number of pictures and the obtained value was then divided by ten (to obtain the “slope”, i.e. the average amount of bound microvesicles per minute).

DDE = target: T2, DDE; assay: competition fluorescence polarization on DDE; this is the reference peptide, 1 by definition
T2 chain 1: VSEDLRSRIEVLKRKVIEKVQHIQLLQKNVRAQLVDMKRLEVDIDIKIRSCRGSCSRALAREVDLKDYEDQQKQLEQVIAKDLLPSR
T2 chain 2: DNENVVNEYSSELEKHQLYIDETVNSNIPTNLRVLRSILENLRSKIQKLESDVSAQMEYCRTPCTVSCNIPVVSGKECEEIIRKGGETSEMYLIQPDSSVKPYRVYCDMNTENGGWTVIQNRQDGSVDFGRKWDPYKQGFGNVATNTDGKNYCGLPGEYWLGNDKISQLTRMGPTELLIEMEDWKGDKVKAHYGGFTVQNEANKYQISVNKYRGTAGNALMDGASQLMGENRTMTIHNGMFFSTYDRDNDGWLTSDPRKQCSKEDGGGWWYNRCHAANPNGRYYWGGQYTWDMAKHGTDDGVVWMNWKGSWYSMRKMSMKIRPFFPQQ
T2 chain 3: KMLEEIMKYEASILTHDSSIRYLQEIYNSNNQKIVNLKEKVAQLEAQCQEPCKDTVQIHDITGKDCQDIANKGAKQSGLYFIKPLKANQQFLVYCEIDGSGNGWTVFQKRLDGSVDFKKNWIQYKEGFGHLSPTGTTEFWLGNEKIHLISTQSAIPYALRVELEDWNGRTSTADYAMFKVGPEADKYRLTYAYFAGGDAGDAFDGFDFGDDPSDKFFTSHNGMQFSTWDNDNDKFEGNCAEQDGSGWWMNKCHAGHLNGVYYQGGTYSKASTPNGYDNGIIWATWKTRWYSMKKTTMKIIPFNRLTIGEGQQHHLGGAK
T2 chain 4: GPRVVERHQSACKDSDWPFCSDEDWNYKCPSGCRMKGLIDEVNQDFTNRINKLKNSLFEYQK
T2 chain 5: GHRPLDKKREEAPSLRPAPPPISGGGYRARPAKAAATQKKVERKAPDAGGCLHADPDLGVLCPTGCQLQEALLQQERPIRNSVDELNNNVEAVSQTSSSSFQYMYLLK
T2 chain 6: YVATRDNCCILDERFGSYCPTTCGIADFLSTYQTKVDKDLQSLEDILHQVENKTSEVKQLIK

Row | Binder | binding result [1] | Rel IC50 (DDE)
1 | B1 | binds | 
2 | B2 | binds | 
3 | B3 |  | 1 ratio to the reference peptide
4 | B4 | binds | 
5 | B5 | binds | 
6 | B6 | binds | 
7 | B7 | binds | 
8 | B8 | binds | 
